According to patent US20170242041:

How the values were obtained:
[1] = tested on: recombinant human GFAP with C-terminal tag (DDK)
recombinant human GFAP with C-terminal tag (DDK), sequence (chain, as listed by the source): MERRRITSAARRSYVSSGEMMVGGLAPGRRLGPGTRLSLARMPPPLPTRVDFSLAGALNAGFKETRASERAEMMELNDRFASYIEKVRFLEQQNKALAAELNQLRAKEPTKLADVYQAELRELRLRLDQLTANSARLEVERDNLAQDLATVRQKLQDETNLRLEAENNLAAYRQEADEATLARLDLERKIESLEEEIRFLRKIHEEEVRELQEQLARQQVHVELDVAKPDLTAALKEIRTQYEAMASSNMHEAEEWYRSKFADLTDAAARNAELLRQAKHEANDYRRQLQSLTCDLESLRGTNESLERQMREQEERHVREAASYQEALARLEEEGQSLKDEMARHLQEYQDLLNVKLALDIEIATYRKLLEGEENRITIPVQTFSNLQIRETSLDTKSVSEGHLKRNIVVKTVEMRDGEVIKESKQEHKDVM

calpain-2, sequence (P17655 20-700): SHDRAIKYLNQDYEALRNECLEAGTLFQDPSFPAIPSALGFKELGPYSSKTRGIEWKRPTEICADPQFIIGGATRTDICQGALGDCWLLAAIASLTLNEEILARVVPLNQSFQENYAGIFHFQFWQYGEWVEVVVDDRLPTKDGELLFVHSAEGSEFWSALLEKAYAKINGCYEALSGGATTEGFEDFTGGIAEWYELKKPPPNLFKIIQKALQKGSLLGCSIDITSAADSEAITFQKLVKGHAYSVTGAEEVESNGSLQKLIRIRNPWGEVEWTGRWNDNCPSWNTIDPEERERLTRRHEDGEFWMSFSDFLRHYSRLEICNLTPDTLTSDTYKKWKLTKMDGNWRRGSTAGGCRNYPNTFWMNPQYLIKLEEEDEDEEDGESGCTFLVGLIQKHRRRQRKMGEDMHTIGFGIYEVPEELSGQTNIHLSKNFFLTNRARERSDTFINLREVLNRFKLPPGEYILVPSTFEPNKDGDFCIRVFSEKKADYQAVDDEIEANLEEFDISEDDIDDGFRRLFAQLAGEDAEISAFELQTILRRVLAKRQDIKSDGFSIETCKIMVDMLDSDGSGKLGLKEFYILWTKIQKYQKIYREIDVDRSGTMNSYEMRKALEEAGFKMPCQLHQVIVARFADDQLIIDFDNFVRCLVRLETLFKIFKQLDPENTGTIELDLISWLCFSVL
rat Tau (intact protein), sequence (chain, as listed by the source): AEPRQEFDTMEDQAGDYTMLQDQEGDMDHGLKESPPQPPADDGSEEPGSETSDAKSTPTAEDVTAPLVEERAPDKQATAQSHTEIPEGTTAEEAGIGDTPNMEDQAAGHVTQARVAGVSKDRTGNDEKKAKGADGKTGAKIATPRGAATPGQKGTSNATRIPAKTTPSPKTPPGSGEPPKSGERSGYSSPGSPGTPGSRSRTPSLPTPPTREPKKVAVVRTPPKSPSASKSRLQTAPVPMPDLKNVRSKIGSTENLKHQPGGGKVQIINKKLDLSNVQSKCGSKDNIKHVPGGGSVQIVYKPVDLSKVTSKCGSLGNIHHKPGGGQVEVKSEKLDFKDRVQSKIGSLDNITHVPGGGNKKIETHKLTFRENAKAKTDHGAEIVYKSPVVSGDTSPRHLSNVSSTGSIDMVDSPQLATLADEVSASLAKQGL
calpain-1, sequence (P07384 2-714): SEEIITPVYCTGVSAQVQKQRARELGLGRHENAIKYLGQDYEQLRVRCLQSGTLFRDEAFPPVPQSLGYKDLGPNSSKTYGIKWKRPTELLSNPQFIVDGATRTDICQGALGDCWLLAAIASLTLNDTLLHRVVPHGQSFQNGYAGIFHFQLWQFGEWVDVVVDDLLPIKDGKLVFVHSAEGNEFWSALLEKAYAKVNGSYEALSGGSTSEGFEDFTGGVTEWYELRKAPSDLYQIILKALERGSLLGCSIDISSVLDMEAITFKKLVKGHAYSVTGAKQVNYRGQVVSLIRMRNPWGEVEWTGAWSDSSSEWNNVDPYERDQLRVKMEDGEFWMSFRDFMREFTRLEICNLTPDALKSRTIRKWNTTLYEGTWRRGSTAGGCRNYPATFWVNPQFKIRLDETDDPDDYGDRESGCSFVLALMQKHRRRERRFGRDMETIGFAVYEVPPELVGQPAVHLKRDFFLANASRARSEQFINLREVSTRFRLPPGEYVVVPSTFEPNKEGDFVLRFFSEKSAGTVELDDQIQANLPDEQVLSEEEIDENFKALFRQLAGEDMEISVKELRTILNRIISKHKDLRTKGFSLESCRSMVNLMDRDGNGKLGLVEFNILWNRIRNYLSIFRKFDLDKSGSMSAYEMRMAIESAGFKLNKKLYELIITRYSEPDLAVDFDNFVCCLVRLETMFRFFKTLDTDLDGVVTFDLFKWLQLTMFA

calpain (calpain 2 or calpain 1)
proteolytic cleavage sites (human Tau): Human TBDPs are produced from Human Tau by calpain cleavage at Ser129 ... Val229 ... Gly157 ... Lys44 ... and Arg379 | proteolytic cleavage; N-terminal sequencing of fragments (rat Tau (intact protein)): Calpain cleaves rat tau at Lys43 ... Ser120 ... Val220 ... and Arg370

caspase-3
proteolytic cleavage sites (human Tau): Caspase cleavage sites in human Tau are Asp25 (GDRKD*25QGGYTMHQD (SEQ ID NO: 17)) ... and Asp421 (SSTGSIDMVD*421SPQLATLA (SEQ ID NO: 18)) | proteolytic digestion, western blot with anti-total tau antibody (human Tau): Treatment of human tau with calpain or caspase produce numerous breakdown products | proteolytic cleavage; N-terminal sequencing of fragments (rat Tau (intact protein)): Caspase-3 cleaves rat Tau at Asp412 (SSTGSIDMVD*412SPQLATLA (SEQ ID NO: 10)) | proteolytic digestion, western blot of fragments (rat Tau (intact protein)): caspase-3 digestion only produces limited fragment doublet of 48 kDa/45/kDa | proteolytic cleavage (Coomassie, anti-DDK and anti-GFAP western blot) [1]: illustrates successful cleavage by both calpain and caspase

calpain-2
proteolytic digestion, western blot with anti-total tau antibody (human Tau): Treatment of human tau with calpain or caspase produce numerous breakdown products | proteolytic digestion, western blot of fragments (rat Tau (intact protein)): Both calpain-1 and -2 digest tau into several immunoreactive fragments (42 kDa, 35 kDa and 15 kDa) | proteolytic cleavage; N-terminal sequencing of excised GBDP bands [1]: cleavage by calpain 2 at Asn59 (GALN*59AGFKETRASERAE) ... and Thr383 (TIPVQT*383FSNLQIRET) ... overall producing multiple GBDPs between 49 and 38 kDa in recombinant human GFAP

calpain-1
proteolytic digestion, western blot of fragments (rat Tau (intact protein)): Both calpain-1 and -2 digest tau into several immunoreactive fragments (42 kDa, 35 kDa and 15 kDa)
